These results are taken from patent US20230012273A1 (Boehringer Ingelheim, published 2023).

Positions count from the first letter of the chain named.

For orientation: Kd means a measure of binding affinity in units of concentration. Broadly, the koff is the rate constant with which the complex falls apart. A word on the kon: it is the rate constant with which the complex forms.

The target in assay [1] is T1, cynomolgus SIRPγ (XP_005568591) extracellular domain + His-tag (cynomolgus monkey, UniProt Q9P1W8 29-359 (human entry)).
T1 construct: SPR analyte; also called Cyno SIRPγ XP_005568591; cynoSIRPγ; not shown: His-tag
T1 chain: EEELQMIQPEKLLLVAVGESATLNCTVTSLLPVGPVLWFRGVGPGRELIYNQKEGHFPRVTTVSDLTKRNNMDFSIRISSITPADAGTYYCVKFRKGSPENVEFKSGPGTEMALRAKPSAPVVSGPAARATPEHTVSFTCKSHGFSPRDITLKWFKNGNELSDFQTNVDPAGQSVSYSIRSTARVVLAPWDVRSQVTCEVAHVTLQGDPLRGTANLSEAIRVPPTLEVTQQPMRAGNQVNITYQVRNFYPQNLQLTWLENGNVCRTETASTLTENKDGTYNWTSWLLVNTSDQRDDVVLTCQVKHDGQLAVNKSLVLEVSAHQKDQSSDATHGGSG
Put plainly: SPR. As to the method: (§1) The binding affinity of anti-SIRPα antibodies to the various SIRPα analytes is determined by surface plasmon resonance (SPR) using a ProteOn XPR36 (Bio-Rad). The running buffer for this experiment and all dilutions (except where stated) are done in 1×HBS-EP+. […] The sensorchip is deactivated with 1M ethanolamine HCl for 420 sec at a flowrate of 10 μl/min.
(§2) The analyte is injected over the captured antibody for 300 sec at a flowrate of 30 μl/min. The dissociation is done for 600 sec. Two-fold serial dilutions of each SIRP protein (Extracellular Domain+His-Tag) are injected as analyte with the highest concentrations indicated in table 36 below.
(SPR reads the build-up and loss of mass on a sensor chip optically.)

Assay [2] addresses T2, cynomolgus SIRPα (EGM_02252) extracellular domain + His-tag (cynomolgus monkey).
T2 construct: SPR analyte; also called CySIRPα EGM_02252; cynoSIRPα; not shown: His-tag
T2 chain: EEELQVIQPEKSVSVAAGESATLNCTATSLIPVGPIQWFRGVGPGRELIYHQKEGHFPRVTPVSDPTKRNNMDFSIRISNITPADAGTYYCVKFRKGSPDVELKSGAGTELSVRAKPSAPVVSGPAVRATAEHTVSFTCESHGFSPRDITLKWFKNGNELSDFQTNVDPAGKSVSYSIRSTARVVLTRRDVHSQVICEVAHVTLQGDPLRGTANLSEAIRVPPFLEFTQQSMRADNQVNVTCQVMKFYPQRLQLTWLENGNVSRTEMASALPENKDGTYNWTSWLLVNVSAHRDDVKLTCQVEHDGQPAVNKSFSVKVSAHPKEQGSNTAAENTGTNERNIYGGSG
As to the kind of experiment: SPR. As to the method:
as §1, §2

For assay [3], the target named is T3, cynomolgus SIRPβ1 (XP_005568598) extracellular domain + His-tag (cynomolgus monkey).
T3 construct: SPR analyte; also called Cyno SIRPβ1 XP_005568598; cynoSIRPβ1; not shown: His-tag
T3 chain: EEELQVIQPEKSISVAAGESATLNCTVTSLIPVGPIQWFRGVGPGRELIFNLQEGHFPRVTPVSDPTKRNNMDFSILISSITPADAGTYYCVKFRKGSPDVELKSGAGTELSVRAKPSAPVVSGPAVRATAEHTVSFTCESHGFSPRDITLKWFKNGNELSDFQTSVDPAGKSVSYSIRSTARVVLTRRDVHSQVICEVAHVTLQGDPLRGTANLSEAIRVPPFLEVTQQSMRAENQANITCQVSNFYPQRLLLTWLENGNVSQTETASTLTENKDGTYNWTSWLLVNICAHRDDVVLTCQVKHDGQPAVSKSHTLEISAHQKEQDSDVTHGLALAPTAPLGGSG
Put plainly: SPR. Here is the method:
as §1, §2

Assay [4] deals with T4, cynomolgus SIRPβ1v3 (XP_005568593) extracellular domain + His-tag (cynomolgus monkey).
T4 construct: SPR analyte; also called Cyno SIRPβ1v3 XP_005568593; cynoSIRPβ1v3; not shown: His-tag
T4 chain: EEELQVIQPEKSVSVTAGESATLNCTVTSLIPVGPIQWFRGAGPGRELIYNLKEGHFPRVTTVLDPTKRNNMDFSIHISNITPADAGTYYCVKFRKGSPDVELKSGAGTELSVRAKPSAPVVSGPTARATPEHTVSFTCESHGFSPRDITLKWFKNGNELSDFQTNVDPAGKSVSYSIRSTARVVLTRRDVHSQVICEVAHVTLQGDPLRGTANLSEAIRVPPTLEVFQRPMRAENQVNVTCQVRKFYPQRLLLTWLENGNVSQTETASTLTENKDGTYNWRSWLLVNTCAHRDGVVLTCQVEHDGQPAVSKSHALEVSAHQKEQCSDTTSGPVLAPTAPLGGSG
Put plainly: SPR, antibody captured, ECD-His analyte. Here is the method:
as §1, §2

The target of assay [5] is T5, Human SIRPαV1 (NP_542970.1), Extracellular Domain + His-Tag (human, UniProt P78324 31-373).
T5 construct: also called huSIRPαV1; hSIRPαV1; not shown: His-Tag
T5 sequence (P78324 other isoform, or with tags, fused parts or gaps): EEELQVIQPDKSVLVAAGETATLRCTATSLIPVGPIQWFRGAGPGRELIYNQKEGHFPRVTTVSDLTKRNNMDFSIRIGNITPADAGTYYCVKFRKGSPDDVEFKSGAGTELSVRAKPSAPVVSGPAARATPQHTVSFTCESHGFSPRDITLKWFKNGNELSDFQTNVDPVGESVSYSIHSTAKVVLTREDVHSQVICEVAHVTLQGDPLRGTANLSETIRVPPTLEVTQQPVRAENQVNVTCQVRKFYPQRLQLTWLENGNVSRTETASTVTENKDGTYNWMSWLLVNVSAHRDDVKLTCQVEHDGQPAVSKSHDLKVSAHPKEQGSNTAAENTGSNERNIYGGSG
As to the kind of experiment: SPR, antibody captured on Protein A/G, ECD-His analyte, 1:1 fit. Here is the method:
(§3) The binding kinetics of anti-SIRPα antibodies to various SIRPα analytes are determined by surface plasmon resonance (SPR) using a Biacore 8K+(Cytiva). 1×HBS-EP+(Cytiva) is used as running buffer and for all the dilutions unless stated otherwise. The Series S CM5 sensorchip is activated with a 1:1 mixture of 0.1 M NHS (N-hydroxysuccinimide) and 0.4 M EDC (1-Ethyl-3-(3-dimethylaminopropyl) carbodiimide hydrochloride) for 420 seconds at a flow rate of 10 μl/min and immobilized with Protein A/G (Thermo Scientific, 10 μg/ml in 10 mM acetate pH 4.5) for 420 seconds at a flowrate of 10 μl/min resulting in approximately 3000 RU of Protein A/G on the surface. The sensorchip is then deactivated with 1 M ethanolamine HCl pH 8.5 for 420 seconds at a flowrate of 10 μl/min.
(§4) Antibodies (approximately 1 ug/ml) are captured on the Protein A/G surface for 60 seconds at a flowrate of 10 μl/min resulting in capture levels of approximately 240 RU. Dilutions of each SIRP protein (Extracellular Domain+His-Tag, with the concentrations as indicated) are injected as analytes over the captured antibody for 300 seconds of association at a flowrate of 30 μl/min, followed by a dissociation for 600 seconds.
(§5) The above procedures are used to measure binding properties of antibodies of the present disclosure. For each analyte used, the highest concentration was as indicated in Example 3 (see Table 36).

Assay [6] deals with T6, Human SIRPαV2 (CAA71403.1), Extracellular Domain + His-Tag (human, UniProt P78324 31-373).
T6 construct: also called huSIRPαV2; hSIRPαV2; not shown: His-Tag
T6 sequence (P78324 other isoform, or with tags, fused parts or gaps): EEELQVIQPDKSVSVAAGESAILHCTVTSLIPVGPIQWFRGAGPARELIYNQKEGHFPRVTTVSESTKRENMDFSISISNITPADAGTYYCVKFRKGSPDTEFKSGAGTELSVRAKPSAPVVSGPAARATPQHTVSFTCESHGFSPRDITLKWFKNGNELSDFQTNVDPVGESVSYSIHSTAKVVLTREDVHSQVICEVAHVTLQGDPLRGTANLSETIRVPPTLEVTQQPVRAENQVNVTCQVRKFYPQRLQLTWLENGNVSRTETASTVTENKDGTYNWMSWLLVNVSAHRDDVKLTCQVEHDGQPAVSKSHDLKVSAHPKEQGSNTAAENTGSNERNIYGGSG
The assay is described as above. As to the method: as §3, §4, §5

For assay [7], the target named is T7, cynoSIRPα (NP_001271679), Extracellular Domain + His-Tag (cynomolgus monkey).
T7 construct: also called CySIRPα NP_001271679; not shown: His-Tag
T7 chain: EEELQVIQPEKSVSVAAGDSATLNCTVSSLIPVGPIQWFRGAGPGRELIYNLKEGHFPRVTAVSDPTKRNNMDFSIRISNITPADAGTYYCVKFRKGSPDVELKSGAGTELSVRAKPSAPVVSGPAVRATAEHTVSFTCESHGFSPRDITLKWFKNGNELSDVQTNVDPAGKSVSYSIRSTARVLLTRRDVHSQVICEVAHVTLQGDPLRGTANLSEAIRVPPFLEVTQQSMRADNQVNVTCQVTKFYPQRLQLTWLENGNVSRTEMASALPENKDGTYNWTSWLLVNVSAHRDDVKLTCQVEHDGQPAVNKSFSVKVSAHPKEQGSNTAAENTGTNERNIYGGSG
The assay is described as above. As to the method: as §3, §4, §5

For assay [8], the target named is T8, cynoSIRPα (XP_015313155), Extracellular Domain + His-Tag (cynomolgus monkey).
T8 construct: also called CySIRPα XP_015313155; not shown: His-Tag
T8 chain: T7 chain with A62P, V163F, L185V
The assay is described as above. Here is the method: as §3, §4, §5

Assay [9] has as its target T9, cynoSIRPα (EGM_02252), Extracellular Domain + His-Tag (cynomolgus monkey).
T9 construct: also called CySIRPα EGM_02252; not shown: His-Tag
T9 chain: T2 chain
Put plainly: SPR, antibody captured on Protein A/G, ECD-His analyte. As to the method: as §3, §4

B1: Antibody E17 (antibody, human IgG1, kappa, L234A L235A, V domains shown)
VH: QVQLQESGPGLVRPSETLSLTCTVSGGSIRNYYWSWIRQPPGKGLEWMGFIYDNGRTFYNPSLKSRVTISLDMSMNQFSLKMTSVTAADTAVYYCARVRAYSGIGLDGTDVWGQGTTVTVSS
VL: DIVMTQSPLSLPVTPGEPASISCKSSQSLLYSNAYNYLDWYLQRPGQSPQLLIYLGSNRASGVPDRFSGSGSGTDFTLKISRVEAEDVGVYYCMQALQTPLTFGGGTKVEIKR
In the case of B1, the binding result in [1], in assay [2] and in [3] was “no binding (tested: 1000 nM)” in each case. The dissociation constant (Kd) in assay [4] worked out at 27 nM.

B2: Antibody E4 (antibody, human IgG1, kappa, L234A L235A, V domains shown)
VH: B1 VH with M48I, D53Y, M75K
VL: B1 VL with A34G, N36A
With B2, the binding result in assay [1], in assay [2] and in assay [3] was “no binding (tested: 1000 nM)” each time. For the same molecule, in assay [4], the dissociation constant Kd came to 13.1 nM.

B3: Antibody E21 (antibody, human IgG1, kappa, L234A L235A, V domains shown)
VH: B1 VH with M48I, D53Y, N54T, M75K
VL: B1 VL
Turning to B3, the binding result in [1], in assay [2] and in assay [3] was “no binding (tested: 1000 nM)” in each case. For the same molecule, the Kd in assay [4] was 56.5 nM.

B4: Antibody E19 (antibody, human IgG1, kappa, L234A L235A, V domains shown)
VH: B1 VH with M48I, D53Y, N54T, M75K
VL: B1 VL with A34G, N36A, L55Q, Y91F
With B4, the binding result in [1], in [2] and in assay [3] was “no binding (tested: 1000 nM)” throughout. Moreover, in assay [4], the dissociation constant Kd is 25 nM.

B5: Antibody E1 (antibody, human IgG1, kappa, L234A L235A, V domains shown)
VH: B1 VH with M48I, D53Y, M75I
VL: B1 VL with A34G, N36A, L55Q, Y91F
As for B5, the Kd in assay [5] worked out at 0.72 nM; in assay [6] it was 0.63 nM; in assay [7], 17.9 nM; in [8], 16.7 nM. Further, the off-rate (koff) amounted to 0.000299 s⁻¹ in [5], 0.00033 s⁻¹ in [6], 0.00327 s⁻¹ in assay [7] and 0.00317 s⁻¹ in assay [8]. In addition, the kon is 414000 M⁻¹ s⁻¹ in assay [5], 523000 M⁻¹ s⁻¹ in [6], 183000 M⁻¹ s⁻¹ in [7] and 190000 M⁻¹ s⁻¹ in [8]. Also, the binding result in assay [9] is listed as “no binding (tested: 1000 nM)”.

B6: Antibody E18 (antibody, human IgG1, kappa, L234A L235A, V domains shown)
VH: B1 VH with M48I, D53Y, N54T, M75K
VL: B1 VL with A34G, N36A
Regarding B6, the binding result in [1], in assay [2] and in [3] was “no binding (tested: 1000 nM)” each time. Also, in [4], the dissociation constant Kd came out at 27.8 nM.

B7: Antibody E20 (antibody, human IgG1, kappa, L234A L235A, V domains shown)
VH: B1 VH with M48I, D53Y, N54T, M75I
VL: B1 VL
As to B7, the binding result in [1], in assay [2] and in [3] was “no binding (tested: 1000 nM)” in each case. In [4], the Kd amounted to 57.4 nM.
